These results are taken from patent publication US20250215072A1 (published 2025).

Broadly, the Kd is the free concentration of one partner at which half of the binding sites on the other are occupied at equilibrium, for simple one-to-one binding.

Substitutions are numbered along the chain they refer to. Read-outs that look alike come from different tables or passages of the source.

Assay [1] addresses T1, human GARP-proTGFβ1 complex (human, UniProt P01137 30-390; Q14392 20-627).
T1 construct: also called hGARP-proTGFβ1; hGARP
As to the kind of experiment: MSD-SET. How it is done: (§1) MSD-SET assays were performed to measure affinities of the antibodies at equilibrium. Briefly, each test antibody was diluted 3-5 fold and samples were mixed with biotinylated antigen in a 48-well dish. The SET samples were equilibrated for 20-24 hours at room temperature. Meanwhile, a capture plate was coated with IgG (20 nM) and incubated overnight at 4° C. or 30 minutes at room temperature, followed by a blocking step with 5% BSA. After the capture plate was washed three times, SET samples were added and incubated for 150 seconds. The plate was washed once to remove unbound complexes. 250 ng/ml SA-Sulfotag was added then washed 3 times. 2× Read Buffer was added, and signals from the labeled bound complexes were read with the use of QuickPlex™ SQ 120 instrument.
(§2) As an example, MSD standard plates (MSD) were coated with a 20 nM solution of monoclonal antibody in PBS for 30 min at room temperature or overnight at 4° C. […] After 20-24 hours of equilibration, the antibody-coated plate was blocked with Blocking Buffer A (MSD) for 30 minutes at room temperature and washed with wash buffer (PBS, 0.1% BSA, 0.05% Tween-20) before adding the equilibrated antibody-antigen complexes to the plate for exactly 2.5 minutes. The plate was washed again with wash buffer before adding 250 ng/ml SULFO-TAG-labeled streptavidin secondary reagent (MSD) in PBS with 0.1% BSA. After washing with wash buffer, plates were read in MSD read buffer (MSD) using the MESO QuickPlex SQ 120 (MSD). The binding data were processed by nonlinear curve fitting in Prism 7 software (Graphpad) to calculate equilibrium binding KD values.

Assay [2] has as its target T2, human LRRC33-proTGFβ1 complex (human, UniProt P01137 30-390; Q86YC3 19-650).
T2 construct: also called hLRRC33-proTGFβ1; hLRRC33
As to the kind of experiment: MSD-SET. How it is done: as §1, §2

For assay [3], the target named is T3, murine LTBP1-proTGFβ1 complex (mouse, UniProt P04202 30-390; Q8CG19 339-1712, limits assumed).
T3 construct: also called mLTBP1-proTGFβ1
As to the kind of experiment: MSD-SET. The method, then:
as §1, §2

The target in assay [4] is T4, murine GARP-proTGFβ1 complex (mouse, UniProt P04202 30-390; G3XA59 18-628).
T4 construct: Soluble murine complex; also called mGARP-proTGFβ1
T4 sequence (P04202 30-390, chain 1 of 2): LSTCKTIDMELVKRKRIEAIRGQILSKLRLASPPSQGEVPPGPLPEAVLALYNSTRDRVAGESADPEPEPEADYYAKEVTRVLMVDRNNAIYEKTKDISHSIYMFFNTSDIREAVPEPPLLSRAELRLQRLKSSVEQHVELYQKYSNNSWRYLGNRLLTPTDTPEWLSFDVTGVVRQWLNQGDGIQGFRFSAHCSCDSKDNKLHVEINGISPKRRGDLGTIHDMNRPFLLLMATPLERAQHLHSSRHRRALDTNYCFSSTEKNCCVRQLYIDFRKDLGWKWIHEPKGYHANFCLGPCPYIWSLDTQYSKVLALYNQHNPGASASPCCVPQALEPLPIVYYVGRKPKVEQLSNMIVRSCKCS
T4 sequence (G3XA59 18-628, chain 2 of 2): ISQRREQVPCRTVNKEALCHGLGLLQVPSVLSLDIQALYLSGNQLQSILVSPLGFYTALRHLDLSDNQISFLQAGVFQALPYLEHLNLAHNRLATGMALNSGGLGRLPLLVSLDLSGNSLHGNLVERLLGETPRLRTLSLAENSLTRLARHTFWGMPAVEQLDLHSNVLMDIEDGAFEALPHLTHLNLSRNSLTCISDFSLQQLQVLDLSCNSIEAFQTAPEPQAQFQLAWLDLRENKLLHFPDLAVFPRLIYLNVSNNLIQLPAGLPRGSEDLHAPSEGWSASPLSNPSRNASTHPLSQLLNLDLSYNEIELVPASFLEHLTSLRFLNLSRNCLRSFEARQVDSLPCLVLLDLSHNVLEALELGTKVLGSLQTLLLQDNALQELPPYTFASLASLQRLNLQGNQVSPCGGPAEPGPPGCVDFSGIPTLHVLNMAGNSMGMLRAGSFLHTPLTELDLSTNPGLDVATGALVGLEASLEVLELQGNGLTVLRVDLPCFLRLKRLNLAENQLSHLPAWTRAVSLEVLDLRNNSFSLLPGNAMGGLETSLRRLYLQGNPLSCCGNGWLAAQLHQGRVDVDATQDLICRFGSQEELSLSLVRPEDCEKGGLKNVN
As to the kind of experiment: MSD-SET. The method, then: as §1, §2

The target in assay [5] is T1, human GARP-proTGFβ1 complex. The assay can be described thus: MSD-SET. The method, then:
as §2
This is another data set of the same source.

Assay [6] concerns the target T2, human LRRC33-proTGFβ1 complex. The assay can be described thus: MSD-SET. How it is done:
as §2
This is another data set of the same source.

Assay [7] concerns the target T3, murine LTBP1-proTGFβ1 complex. As to the kind of experiment: MSD-SET. The method, then: as §2
This is another data set of the same source.

In assay [8] the target is T4, murine GARP-proTGFβ1 complex. As to the kind of experiment: MSD-SET. How it is done:
as §2
The source holds these as a separate data set.

Assay [9] concerns the target rat LTBP1-proTGFβ1 complex (rat, UniProt P17246 30-390; Q00918 339-1712). As to the kind of experiment: MSD-SET. The method, then: as §2
The target in assay [10] is rat LRRC33-proTGFβ1 complex (rat, UniProt P17246 30-390; Q5BK65 25-650). As to the kind of experiment: MSD-SET. How it is done:
as §2

Assay [11] addresses T1, human GARP-proTGFβ1 complex. The assay can be described thus: BLI (Octet). How it is done:
(§3) The affinity of anti-TGFβ1 antibodies was measured by Octet@ assay on human proTGFβ1 cells, while activity was measured by CAGA12 reporter cells testing human proTGFβ1 inhibition.

Assay [12] addresses T2, human LRRC33-proTGFβ1 complex. The assay can be described thus: BLI (Octet). How it is done:
as §3

Assay [13] deals with T1, human GARP-proTGFβ1 complex. As to the kind of experiment: MSD-SET, hIgG4. The method, then: as §1
In assay [14] the target is T2, human LRRC33-proTGFβ1 complex. The assay can be described thus: MSD-SET, hIgG4. How it is done:
as §1

The target of assay [15] is hLTBP1-proTGFβ1 as produced in the cell-based activation assay (human, UniProt P01137 30-390; Q14766 347-1721). As to the kind of experiment: cell-based or functional assay.
The target of assay [16] is hLTBP3-proTGFβ1 as produced in the cell-based activation assay (human, UniProt P01137 30-390; Q9NS15 44-1303). As to the kind of experiment: cell-based or functional assay.
Sequence of hLTBP3-proTGFβ1 as produced in the cell-based activation assay (P01137 30-390 limits assumed, chain 1 of 2): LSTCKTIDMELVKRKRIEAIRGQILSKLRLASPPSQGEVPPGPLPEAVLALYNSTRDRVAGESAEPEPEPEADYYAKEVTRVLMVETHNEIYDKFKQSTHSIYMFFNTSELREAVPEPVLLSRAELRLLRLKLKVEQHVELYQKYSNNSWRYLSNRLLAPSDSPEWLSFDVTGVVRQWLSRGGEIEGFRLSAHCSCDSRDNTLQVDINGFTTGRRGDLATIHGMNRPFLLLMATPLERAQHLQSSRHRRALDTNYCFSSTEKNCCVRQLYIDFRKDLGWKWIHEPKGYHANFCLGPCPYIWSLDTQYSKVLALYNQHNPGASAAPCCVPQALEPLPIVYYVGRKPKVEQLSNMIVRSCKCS
Sequence of hLTBP3-proTGFβ1 as produced in the cell-based activation assay (Q9NS15 44-1303 limits assumed, chain 2 of 2): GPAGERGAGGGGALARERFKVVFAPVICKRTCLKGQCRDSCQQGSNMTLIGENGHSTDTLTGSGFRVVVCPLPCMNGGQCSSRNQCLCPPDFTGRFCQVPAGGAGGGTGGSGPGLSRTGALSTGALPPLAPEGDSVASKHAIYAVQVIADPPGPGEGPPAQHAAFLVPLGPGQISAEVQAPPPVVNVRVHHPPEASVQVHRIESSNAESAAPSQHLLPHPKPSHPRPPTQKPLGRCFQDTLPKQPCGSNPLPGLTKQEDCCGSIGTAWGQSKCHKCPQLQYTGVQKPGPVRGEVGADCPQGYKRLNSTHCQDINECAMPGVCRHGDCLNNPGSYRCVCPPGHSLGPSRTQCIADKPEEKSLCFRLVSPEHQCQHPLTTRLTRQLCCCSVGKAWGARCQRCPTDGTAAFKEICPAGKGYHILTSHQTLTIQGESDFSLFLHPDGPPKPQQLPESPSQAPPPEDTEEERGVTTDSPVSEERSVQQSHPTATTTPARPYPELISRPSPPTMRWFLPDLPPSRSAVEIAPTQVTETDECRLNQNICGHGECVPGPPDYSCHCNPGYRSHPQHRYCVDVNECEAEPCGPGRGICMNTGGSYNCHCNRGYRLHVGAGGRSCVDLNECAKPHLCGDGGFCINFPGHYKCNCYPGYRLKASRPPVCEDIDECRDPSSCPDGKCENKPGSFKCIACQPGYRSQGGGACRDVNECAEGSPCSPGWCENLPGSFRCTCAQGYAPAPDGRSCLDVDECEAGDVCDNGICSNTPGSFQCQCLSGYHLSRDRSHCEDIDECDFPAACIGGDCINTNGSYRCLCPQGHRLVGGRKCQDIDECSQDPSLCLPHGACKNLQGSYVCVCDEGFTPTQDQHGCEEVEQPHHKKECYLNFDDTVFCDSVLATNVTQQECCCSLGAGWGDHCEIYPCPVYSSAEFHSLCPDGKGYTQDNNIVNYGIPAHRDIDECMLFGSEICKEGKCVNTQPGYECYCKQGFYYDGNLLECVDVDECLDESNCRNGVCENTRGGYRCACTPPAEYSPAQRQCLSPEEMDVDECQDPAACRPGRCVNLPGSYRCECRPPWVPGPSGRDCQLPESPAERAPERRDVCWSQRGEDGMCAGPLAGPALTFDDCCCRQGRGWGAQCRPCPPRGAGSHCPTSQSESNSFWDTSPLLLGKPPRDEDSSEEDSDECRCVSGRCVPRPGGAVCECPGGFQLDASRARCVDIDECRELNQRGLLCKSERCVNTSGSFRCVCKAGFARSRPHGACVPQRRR
Assay [17] deals with hGARP-proTGFβ1 presented on cells (human, UniProt P01137 30-390; Q14392 20-662). As to the kind of experiment: cell-based or functional assay.
Sequence of hGARP-proTGFβ1 presented on cells (P01137 30-390 limits assumed, chain 1 of 2): as the sequence (P01137 30-390 limits assumed, chain 1 of 2) above
Sequence of hGARP-proTGFβ1 presented on cells (Q14392 20-662 limits assumed, chain 2 of 2): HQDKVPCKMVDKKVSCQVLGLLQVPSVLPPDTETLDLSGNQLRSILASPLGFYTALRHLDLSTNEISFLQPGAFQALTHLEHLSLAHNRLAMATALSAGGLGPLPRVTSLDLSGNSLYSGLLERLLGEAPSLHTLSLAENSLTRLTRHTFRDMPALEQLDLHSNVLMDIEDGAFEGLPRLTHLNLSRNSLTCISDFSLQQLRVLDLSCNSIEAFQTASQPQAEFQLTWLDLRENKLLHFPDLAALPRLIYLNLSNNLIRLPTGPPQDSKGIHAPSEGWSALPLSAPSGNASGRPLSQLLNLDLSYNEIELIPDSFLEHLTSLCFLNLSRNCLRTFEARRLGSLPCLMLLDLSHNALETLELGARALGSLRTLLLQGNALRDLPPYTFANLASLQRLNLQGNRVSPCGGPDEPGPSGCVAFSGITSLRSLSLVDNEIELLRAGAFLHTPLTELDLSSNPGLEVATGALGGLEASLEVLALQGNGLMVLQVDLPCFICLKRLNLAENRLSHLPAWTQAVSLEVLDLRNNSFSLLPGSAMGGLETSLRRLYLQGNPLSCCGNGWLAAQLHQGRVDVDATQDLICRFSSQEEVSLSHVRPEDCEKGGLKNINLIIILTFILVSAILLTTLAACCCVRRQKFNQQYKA
The target in assay [18] is hLRRC33-proTGFβ1 presented on cells (human, UniProt P01137 30-390; Q86YC3 19-692). The assay can be described thus: cell-based or functional assay.
In assay [19] the target is T4, murine GARP-proTGFβ1 complex. As to the kind of experiment: BLI screen of library antibodies.

T1 sequence (P01137 30-390, chain 1 of 2): as the sequence (P01137 30-390 limits assumed, chain 1 of 2) above
T1 sequence (Q14392 20-627, chain 2 of 2): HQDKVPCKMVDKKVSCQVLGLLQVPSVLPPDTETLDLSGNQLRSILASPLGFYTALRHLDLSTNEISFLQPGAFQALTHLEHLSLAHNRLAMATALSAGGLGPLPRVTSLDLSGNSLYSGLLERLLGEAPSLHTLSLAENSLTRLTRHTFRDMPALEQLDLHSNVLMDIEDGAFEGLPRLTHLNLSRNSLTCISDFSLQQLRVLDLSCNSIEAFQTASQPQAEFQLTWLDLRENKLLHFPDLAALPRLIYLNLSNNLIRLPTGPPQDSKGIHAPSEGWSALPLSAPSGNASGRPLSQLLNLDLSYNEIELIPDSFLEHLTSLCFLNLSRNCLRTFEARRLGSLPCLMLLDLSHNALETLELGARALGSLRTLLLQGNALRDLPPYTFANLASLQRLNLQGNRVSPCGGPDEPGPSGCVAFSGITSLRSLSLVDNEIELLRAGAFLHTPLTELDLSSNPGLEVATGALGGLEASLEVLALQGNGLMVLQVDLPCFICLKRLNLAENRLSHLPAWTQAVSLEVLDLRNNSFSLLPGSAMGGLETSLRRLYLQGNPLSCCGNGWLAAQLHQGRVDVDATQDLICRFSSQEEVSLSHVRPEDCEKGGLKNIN
T2 sequence (P01137 30-390 limits assumed, chain 1 of 2): as the sequence (P01137 30-390 limits assumed, chain 1 of 2) above
T2 sequence (Q86YC3 other isoform, or with tags, fused parts or gaps limits assumed, chain 2 of 2): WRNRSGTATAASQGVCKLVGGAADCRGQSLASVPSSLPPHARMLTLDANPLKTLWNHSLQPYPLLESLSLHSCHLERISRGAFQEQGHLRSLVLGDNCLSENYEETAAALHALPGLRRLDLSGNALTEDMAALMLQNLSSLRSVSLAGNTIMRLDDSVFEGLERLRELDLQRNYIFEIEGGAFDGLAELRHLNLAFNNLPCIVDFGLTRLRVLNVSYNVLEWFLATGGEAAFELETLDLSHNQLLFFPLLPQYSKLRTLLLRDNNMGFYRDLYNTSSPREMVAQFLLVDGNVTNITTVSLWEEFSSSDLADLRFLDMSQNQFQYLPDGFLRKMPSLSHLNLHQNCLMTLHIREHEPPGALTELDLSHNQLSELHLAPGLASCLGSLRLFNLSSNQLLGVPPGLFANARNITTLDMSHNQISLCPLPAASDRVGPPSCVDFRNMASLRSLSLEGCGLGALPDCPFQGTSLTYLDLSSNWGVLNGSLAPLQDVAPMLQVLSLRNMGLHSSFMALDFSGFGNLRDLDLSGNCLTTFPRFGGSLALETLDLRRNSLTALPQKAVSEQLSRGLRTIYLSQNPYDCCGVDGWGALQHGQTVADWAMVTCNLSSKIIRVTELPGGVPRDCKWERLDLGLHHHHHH

B1: Ab6 (antibody, V domains shown)
VH: EVQLVESGGGLVQPGGSLRLSCTASGFTFSSFSMDWVRQAPGKGLEWVSYISPSADTIYYADSVKGRFTISRDNAKNTLYLQMNSLRAEDTAVYYCARGVLDYGDMLMPWGQGTLVTVSS
VL: DIQMTQSPSSLSASVGDRVTITCQASQDITNYLNWYQQKPGKAPKLLIYDASNLETGVPSRFSGSGSGTDFTFTISSLQPEDIATYYCQQADNHPPWTFGGGTKVEIKR
For the molecule B1, the equilibrium dissociation constant (Kd) in [1] came out at 0.027 nM; in assay [2], 0.063 nM; in assay [3] it was 0.024 nM; in assay [4], 0.021 nM; in [5] it was 0.027 nM; in assay [6], 0.063 nM. Besides, the Kd came out at 0.024 nM in assay [7]; 0.021 nM in assay [8]; 0.035 nM in [9]; 0.086 nM in assay [10]; 0.404 nM in assay [11]; 0.336 nM in assay [12]. The Kd is 0.027 nM in assay [13] and 0.063 nM in [14]. The “IC50, reporter cell assay” value is 2.74 nM in assay [15], 0.821 nM in [16], 0.324 nM in [17] and 0.495 nM in assay [18].

B2: Ab4 (antibody, IgG4, V domains shown)
VH: B1 VH with T23A, F32Y, D35N, P53S, A55S, D56S, T78S, M108D
VL: DIQMTQSPSSLSASVGDRVTITCQASQDITNYLNWYQQKPGKAPKLLIYDASNLETGVPSRFSGSGSGTDFTFTISSLQPEDIATYYCQQADNHPPWTFGGGTKVEIK
notes: parent of Ab6
As for B2, the Kd in assay [13] came out at 2.5 nM; in assay [14], 2.1 nM. Further, the “IC50, reporter cell assay” value in assay [15] turned out to be 5.22 nM; in assay [16], 5.65 nM; in assay [17], 0.822 nM; in [18] it was 3.5 nM. For the same molecule, the binding result in assay [19] is given as “binds”.
